Source: US20050196797A1 (JAPAN SCIENCE AND TECHNOLOGY AGENCY, published 2005)

Target: human SMG-1 (hSMG-1) (human, UniProt Q96Q15 1-3661, limits assumed)
Test: cell-based or functional assay

Chain of human SMG-1 (hSMG-1) (Q96Q15 whole entry): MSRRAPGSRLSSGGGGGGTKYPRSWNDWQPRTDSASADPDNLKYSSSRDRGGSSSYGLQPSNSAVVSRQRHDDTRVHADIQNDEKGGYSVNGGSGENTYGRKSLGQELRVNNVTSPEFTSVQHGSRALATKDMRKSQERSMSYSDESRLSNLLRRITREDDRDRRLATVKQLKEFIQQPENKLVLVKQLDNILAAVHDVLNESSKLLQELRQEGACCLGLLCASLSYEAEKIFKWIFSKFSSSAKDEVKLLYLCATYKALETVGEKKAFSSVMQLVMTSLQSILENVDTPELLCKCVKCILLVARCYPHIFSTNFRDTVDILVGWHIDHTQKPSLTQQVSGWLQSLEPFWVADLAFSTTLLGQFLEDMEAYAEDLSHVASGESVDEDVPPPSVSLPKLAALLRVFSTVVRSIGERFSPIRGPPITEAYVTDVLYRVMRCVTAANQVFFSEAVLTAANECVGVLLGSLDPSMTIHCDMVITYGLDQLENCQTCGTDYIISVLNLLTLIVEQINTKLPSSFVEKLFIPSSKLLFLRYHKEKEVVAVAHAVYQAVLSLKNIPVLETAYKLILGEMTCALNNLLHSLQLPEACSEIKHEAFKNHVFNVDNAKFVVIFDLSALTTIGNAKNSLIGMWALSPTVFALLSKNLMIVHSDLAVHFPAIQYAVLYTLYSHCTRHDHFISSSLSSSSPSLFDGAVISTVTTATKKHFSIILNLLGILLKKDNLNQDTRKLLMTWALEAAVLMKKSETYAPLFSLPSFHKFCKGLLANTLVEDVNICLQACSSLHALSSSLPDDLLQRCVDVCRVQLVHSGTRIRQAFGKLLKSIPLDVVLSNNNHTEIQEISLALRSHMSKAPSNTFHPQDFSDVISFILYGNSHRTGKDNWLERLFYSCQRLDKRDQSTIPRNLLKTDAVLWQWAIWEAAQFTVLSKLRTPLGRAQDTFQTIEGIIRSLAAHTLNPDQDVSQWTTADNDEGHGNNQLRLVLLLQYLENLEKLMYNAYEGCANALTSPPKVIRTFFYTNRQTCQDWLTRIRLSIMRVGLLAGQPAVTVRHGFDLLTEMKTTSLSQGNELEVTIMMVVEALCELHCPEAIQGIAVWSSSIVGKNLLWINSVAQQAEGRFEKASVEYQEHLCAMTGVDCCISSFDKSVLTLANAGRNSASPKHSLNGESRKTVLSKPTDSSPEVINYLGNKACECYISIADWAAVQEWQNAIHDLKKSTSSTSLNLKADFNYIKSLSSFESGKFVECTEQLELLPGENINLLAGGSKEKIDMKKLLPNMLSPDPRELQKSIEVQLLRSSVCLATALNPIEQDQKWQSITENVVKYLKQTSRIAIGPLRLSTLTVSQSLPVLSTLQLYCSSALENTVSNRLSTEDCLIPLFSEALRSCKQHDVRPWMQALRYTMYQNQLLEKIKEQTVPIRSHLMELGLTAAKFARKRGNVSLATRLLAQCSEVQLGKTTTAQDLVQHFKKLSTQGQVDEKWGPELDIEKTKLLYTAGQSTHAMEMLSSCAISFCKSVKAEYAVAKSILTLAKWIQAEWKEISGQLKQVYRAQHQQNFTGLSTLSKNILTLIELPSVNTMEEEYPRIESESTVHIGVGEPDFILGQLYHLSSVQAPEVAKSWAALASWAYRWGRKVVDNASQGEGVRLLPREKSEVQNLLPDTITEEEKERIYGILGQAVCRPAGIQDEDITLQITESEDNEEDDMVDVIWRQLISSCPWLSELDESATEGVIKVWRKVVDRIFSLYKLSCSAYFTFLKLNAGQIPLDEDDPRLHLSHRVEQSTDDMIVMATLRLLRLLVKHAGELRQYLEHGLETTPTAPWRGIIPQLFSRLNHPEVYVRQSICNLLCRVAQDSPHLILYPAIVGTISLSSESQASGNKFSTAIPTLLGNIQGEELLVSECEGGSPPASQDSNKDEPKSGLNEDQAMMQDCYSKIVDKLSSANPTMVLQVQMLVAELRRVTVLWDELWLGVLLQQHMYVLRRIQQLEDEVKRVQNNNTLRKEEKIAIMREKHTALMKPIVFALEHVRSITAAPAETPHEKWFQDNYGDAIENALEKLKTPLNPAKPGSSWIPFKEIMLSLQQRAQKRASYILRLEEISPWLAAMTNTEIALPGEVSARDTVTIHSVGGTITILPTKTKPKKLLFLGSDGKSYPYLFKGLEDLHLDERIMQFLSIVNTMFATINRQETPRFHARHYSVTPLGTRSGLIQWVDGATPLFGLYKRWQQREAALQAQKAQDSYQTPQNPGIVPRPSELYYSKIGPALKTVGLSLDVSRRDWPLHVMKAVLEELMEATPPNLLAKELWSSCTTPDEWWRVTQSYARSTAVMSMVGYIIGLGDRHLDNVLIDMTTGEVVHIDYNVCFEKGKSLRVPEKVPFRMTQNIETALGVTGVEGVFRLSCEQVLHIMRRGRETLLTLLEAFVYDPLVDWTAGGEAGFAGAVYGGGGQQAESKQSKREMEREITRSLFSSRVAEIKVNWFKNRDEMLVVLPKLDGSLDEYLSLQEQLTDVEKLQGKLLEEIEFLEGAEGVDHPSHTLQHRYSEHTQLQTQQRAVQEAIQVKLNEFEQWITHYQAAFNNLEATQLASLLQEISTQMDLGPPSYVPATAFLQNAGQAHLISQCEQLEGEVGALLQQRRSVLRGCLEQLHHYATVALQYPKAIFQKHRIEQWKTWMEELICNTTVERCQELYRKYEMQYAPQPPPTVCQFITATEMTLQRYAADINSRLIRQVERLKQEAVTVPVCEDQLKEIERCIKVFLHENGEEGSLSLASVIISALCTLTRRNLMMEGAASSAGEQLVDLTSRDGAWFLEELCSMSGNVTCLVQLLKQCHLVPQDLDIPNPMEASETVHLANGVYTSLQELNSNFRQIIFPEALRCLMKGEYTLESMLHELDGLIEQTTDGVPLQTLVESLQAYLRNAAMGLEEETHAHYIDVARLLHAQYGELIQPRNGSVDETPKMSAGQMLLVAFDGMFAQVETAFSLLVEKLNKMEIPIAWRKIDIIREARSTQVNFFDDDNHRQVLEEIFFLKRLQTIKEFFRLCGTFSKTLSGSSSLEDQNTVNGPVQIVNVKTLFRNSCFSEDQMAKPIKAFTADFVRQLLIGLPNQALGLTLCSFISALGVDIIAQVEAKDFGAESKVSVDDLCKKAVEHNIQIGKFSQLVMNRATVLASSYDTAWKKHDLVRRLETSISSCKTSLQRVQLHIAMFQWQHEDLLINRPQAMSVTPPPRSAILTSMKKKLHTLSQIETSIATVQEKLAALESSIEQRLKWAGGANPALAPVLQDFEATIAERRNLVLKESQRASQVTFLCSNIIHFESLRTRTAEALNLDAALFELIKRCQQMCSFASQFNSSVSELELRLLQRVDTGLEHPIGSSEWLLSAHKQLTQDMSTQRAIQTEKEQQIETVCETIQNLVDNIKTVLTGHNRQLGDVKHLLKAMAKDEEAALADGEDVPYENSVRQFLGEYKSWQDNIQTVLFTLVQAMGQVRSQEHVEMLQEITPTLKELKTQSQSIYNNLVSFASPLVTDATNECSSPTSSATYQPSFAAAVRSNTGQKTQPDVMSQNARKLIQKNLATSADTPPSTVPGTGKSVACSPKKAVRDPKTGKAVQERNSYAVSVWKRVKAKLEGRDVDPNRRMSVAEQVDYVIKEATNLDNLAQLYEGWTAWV

- phosphorylation of hUPF1 (P-hUPF1/hUPF1) in HeLa TetOff cells transfected with siRNA against p130, relative to control siRNA: ~40%
B1: SMGBP1 (SMG Binding Protein 1) (other)
chain: MAGPVSLRDLLMGASAWMGSESPGGSPTEGGGSAAGGPEPPWREDEICVVGIFGKTALRLNSEKFSLVNTVCDRQVFPLFRHQDPGDPGPGIRTEAGAVGEAGGAEDPGAAAGGSVRGSGAVAEGNRTEAGSQDYSLLQAYYSQESKVLYLLLTSICDNSQLLRACRALQSGEAGGGLSLPHAEAHEFWKHQEKLQCLSLLYLFSVCHILLLVHPTCSFDITYDRVFRALDGLRQKVLPLLKTAIKDCPVGKDWKLNCRPCPPRLLFLFQLNGALKVVPPRNQDPAHPDKPKKHSPKRRLQHALEDQIYRIFRKSRVLTNQSINCLFTVPANQAFVYIVPGSQEEDPVGMLLDQLRSHCTVKDPESLLVPAPLSGPRRYQVMRQHSRQQLSFHIDSSSSSSSGQLVDFTLWEFLWQHVELVLSKKGFDDSVGRNPQPSHFELPTYQKWISAASKLYEVAIDGKEEDLGSPTGELTSKILSSIKVLEGFLDIDTKFSENRCQKALPMAHSAYQSNLPHNYTMTVHKNQLAQALRVYSQHARGPAFHKYAMQLHEDCYKFWSNGHQLCEERSLTDQHCVHKFHSLPKSGEKPEADRNPPVLYHNSRARSTGACNCGRKQAPRDDPFDIKAANYDFYQLLEEKCCGKLDHINFPVFEPSTPDPAPAKNESSPAPPDSDADKLKEKEPQTQGESTSLSLALSLGQSTDSLGTYPADPQAGGDNPEVHGQVEVKTEKRPNFVDRQASTVEYLPGMLHSNCPKGLLPKFSSWSLVKLGPAKSYNFHTGLDQQGFIPGTNYLMPWDIVIRTRAEDEGDLDTNSWPAPNKAIPGKRSAVVMGRGRRRDDIARAFVGFEYEDSRGRRFMCSGPDKVMKVMGSGPKESALKALNSDMPLYILSSSQGRGLKPHYAQLMRLFVVVPDAPLQIILMPQVQPGPPPCPVFYPEKQEITLPPDGLWVLRFPYAYVTERGPCFPPKENVQLMSYKVLRGVLKAVTQ
